Key:
Test in all cases: cell-based or functional assay
[1] = target: human IGF-2 (human) (UniProt P01344)
[2] = target: human IGF-1 (human) (UniProt P05019)
[3] = target: human IGF-1R (human) (UniProt P08069)
human IGF-1R (human), sequence (P08069 31-1367): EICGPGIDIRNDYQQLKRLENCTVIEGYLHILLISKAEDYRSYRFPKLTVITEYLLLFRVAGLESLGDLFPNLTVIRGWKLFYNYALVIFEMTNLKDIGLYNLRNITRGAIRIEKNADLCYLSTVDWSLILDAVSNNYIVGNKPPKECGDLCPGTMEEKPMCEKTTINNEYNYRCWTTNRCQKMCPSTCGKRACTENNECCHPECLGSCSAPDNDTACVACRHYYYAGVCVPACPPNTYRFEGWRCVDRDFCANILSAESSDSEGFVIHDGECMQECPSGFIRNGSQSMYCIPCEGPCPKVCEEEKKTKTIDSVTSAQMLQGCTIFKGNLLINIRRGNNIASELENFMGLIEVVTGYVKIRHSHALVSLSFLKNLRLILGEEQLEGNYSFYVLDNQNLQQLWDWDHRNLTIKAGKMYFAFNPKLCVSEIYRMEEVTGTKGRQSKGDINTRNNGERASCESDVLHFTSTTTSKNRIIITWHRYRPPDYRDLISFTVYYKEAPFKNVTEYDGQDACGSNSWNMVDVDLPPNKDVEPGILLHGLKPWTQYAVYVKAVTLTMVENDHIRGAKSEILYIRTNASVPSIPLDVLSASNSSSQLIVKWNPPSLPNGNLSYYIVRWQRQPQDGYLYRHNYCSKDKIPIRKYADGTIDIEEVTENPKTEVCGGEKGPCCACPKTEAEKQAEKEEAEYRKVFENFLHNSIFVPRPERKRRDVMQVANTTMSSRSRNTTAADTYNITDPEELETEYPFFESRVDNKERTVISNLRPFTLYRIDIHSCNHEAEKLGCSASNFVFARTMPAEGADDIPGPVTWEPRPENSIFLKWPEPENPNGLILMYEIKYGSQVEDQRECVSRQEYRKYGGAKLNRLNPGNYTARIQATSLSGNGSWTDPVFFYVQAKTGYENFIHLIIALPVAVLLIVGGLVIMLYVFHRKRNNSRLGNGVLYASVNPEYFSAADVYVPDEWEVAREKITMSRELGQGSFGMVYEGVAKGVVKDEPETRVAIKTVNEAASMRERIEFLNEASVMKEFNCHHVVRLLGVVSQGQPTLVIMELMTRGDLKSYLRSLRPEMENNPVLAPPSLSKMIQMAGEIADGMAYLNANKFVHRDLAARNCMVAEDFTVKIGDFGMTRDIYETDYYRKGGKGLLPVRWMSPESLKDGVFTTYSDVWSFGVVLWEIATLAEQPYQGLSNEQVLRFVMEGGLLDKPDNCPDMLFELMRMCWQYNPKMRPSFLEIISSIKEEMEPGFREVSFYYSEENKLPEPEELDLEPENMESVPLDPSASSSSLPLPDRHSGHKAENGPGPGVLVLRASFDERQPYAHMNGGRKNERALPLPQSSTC

human IGF-2 (human), sequence (P01344 25-91 limits assumed): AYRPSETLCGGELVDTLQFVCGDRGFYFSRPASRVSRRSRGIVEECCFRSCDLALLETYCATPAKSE
human IGF-1 (human), sequence (P05019 49-118): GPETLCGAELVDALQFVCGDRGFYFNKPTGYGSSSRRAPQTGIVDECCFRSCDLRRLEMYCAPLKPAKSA

Substance	% Remaining Phosphorylation at 15 µg/mL (100 nM) Inhibitor; IGF-2 (100 ng/mL) induced IGF-1R phosphorylation [1] [%]	% Remaining Phosphorylation at 15 µg/mL (100 nM) Inhibitor; IGF-2 (100 ng/mL) induced IR-A phosphorylation [1] [%]	IC50 of IGF-2 (100 ng/mL) induced IGF-1R phosphorylation, cell based ELISA [1] [µg/mL]	IC50 of IGF-2 (100 ng/mL) induced IR-A phosphorylation, cell based ELISA [1] [µg/mL]	% Remaining Phosphorylation at 15 µg/mL (100 nM) Inhibitor; IGF-1 (20 ng/mL) induced IGF-1R phosphorylation [2] [%]	% Remaining Phosphorylation at 15 µg/mL (100 nM) Inhibitor; IGF-1 (20 ng/mL) induced IGF-1R phosphorylation [3] [%]	% Remaining Phosphorylation at 15 µg/mL (100 nM) Inhibitor; IGF-2 (100 ng/mL) induced IGF-1R phosphorylation [3] [%]	% Remaining Phosphorylation at 15 µg/mL (100 nM) Inhibitor; human serum (20%) induced IGF-1R phosphorylation [3] [%]	IC50 of IGF-1 (20 ng/mL) induced IGF-1R phosphorylation, cell based ELISA [3] [µg/mL]	IC50 of IGF-2 (100 ng/mL) induced IGF-1R phosphorylation, cell based ELISA [3] [µg/mL]	IC50 of human serum (20%) induced IGF-1R phosphorylation, cell based ELISA [3] [µg/mL]
Control IgG (antibody)	108	109	> 15	> 15	108	–	–	–	–	–	–
IGF-1R antibody αIR-3 (Calbiochem, No. GR11L)	–	–	–	–	–	35	76	120	1.16	> 15	> 15

Source: patent publication US20150010574A1
